Data taken from patent US10160812B2, “Bispecific HER2 antibodies” (MedImmune, LLC, priority 2014, dated 2018).
“Also recorded” adds a separate entry of the source.

Columns and labels:
[1] = tested on: T-DM1 resistant NCI-N87 tumor model; experiment: In vivo tumor model with acquired T-DM1 resistance; set-up: species or system mice; settings: weekly intravenous dosing, 3 mg/kg (pertuzumab 10 mg/kg), total of 4 doses
Procedure: To establish an in vivo tumor model with acquired T-DM1 resistance, the T-DM1-resistant NCI-N87 cells were injected subcutaneously into the immune-deficient mice. The tumor-bearing mice were treated with 3 mg/kg of T-DM1. It appeared that the in vitro T-DM1 resistance was not fully translated into the in vivo resistance, reflected by considerable variations in tumor growth among animals. Thus, mice with large refractory tumors (˜1000 mm^3 in volume) were selected and the tumor tissue fragments were passaged to new mice until the tumors grew consistently in the presence of weekly treatment of 3 mg/kg T-DM1.

HER2 = HER2 (Homo sapiens, UniProt P04626); experiment: FACS-based binding competition assay with labeled 39S; set-up: endogenous in cells; host or cells: BT-474; settings: BT-474 cells, 2 ug/mL labeled 39S
Procedure: BT-474 cells were harvested, resuspended in FACS buffer, and 2.5×10^5 cells/well were added to a 96-well U-bottom plate. […] After 1 hour of staining on ice, cells were washed 3 times with ice-cold FACS buffer and then fixed with 2% PFA. Cells were analyzed by a BD LSR II machine with BD FACSDiva™ software. Data were analyzed with FlowJo software and presented as mean MFI±SEM (n=3).

[2] = molecular target: T1, chimeric human/mouse Her2 variants (Homo sapiens, UniProt P04626, A221T/F173L/G201D/G222S/H174R/H193P/I172V/I184M/L181P/L183D/M198T/P230R/R203H/R217G/S196A/S202N/S209P/S214I/T182V/V219I); experiment: ProteOn SPR binding of 39S to captured chimeric Her2 variants; settings: variant KO_146-208
T1 construct: His tag; made in house; host or cells: HEK293F (transient, pEBNA vector; captured from culture supernatant)
Source text: (§1) The domain II of human HER2 was identified as the epitope of 39S by swapping domains between human and mouse Her2 molecules. Mouse Her2 was chosen as the chimeric partner because it is not recognized by 39S, but shares 85% sequence identity with human HER2. Chimeric variants targeting each domain of HER2 were constructed (see method below) as listed in Table 4, including four knock-out (KO, loss-of-function) variants replacing domain I, II, III, or IV of human HER2 with the mouse counterpart, and one knock-in (KI, gain-of-function) variant grafting the domain II of human HER2 into mouse Her2 molecule. The chimeric variant nomenclature denotes types of variants (KO/KI) and the number of domains swapped. The binding profiles of 39S to these variants were characterized using a SPR based instrument ProteOn™ by capturing variants on sensor surfaces using anti-human and mouse Her2 polyclonal antibodies (see method below). The expression of the variants was monitored by anti-His polyclonal antibody using ProteOn™. […] Therefore, the domain II (amino acid 146-310) of human HER2 was identified as the epitope-containing domain of 39S by both loss-of-function and gain-of-function variants.
(§2) We further refined the epitope of 39S and identified the region of amino acid 192-208 in domain II as the critical epitope region. […] Seven knock-out variants were generated by replacing each of the following human HER2 regions with the mouse counterparts, including amino acids 146-208, 159-162, 171-187, 192-208, 250-261, 276-285, and 295-296. In addition, one knock-in variant was constructed by grafting the region of amino acid 192-208 of human HER2 to the mouse molecule. The variant nomenclature denotes types of variants (KO/KI) and the swapped regions with amino acid numbering. All variants had detectable expression levels by anti-His polyclonal antibody (Table 4). […] The binding of 39S was not impacted when substituting any other regions of human HER2 with mouse amino acids (KO_159-162, KO_171-187, KO_250-261, KO_276-285, and KO_295-296). […] Taken together, the region of amino acid 192-208 in domain II of human HER2 was identified as the functional epitope of 39S.
(§3) The variant nomenclature denotes types of variants (KO/KI) and the swapped regions with amino acid numbering. Amino acid positions were denoted basing on the numbering scheme of mature human HER2 sequences without its signal peptide. The expression levels of all variants were monitored by an anti-His polyclonal antibody. The binding profiles of 39S to these variants were characterized using a SPR based instrument ProteOn™ by capturing variants on sensor surfaces using anti-human and mouse Her2 polyclonal antibodies.
(§4) Construction and expression of chimeric human/mouse Her2 variants were constructed as follows. Briefly, DNAs encoding chimeric human/mouse Her2 variants with a His tag were assembled and amplified by overlapping PCR using human and mouse Her2 plasmids as templates (MedImmune). The assembled DNAs were cloned into the mammalian expression vector pEBNA (MedImmune). HEK293F cells were then transiently transfected with the various constructs using 293fectin and standard protocols according to the manufacturer's instructions (Invitrogen).
(§5) The binding characteristics of 39S to chimeric human/mouse variants were studied using a ProteOn™ XPR36 instrument (BioRad). Standard amine coupling was used to immobilize an anti-human or mouse Her2 polyclonal antibody (R&D System) in 10 mM sodium acetate (pH 5.0) to the surface of a GLC biosensor chip at ˜5000 resonance units (RU) for each channel. The chimeric proteins in cell culture supernatant were injected and captured by anti-human or mouse polyclonal antibodies onto the GLC surface with a ˜200RU response. Anti-HER2 mAb 39S was diluted in phosphate-buffered saline (PBS) (pH 7.4) with 0.005% Tween-20 from 10 nM to 0.625 nM (1:2 dilution), and injected at 100 μL/min for 180 sec with a 600-second dissociation time. […]

[3] = molecular target: T2, chimeric human/mouse Her2 variants (Homo sapiens, UniProt P04626, A221T/G222S/P230R/R217G/S214I/V219I); experiment: as above; settings: variant KO_192-208
T2 construct: His tag; made in house; host or cells: HEK293F (transient, pEBNA vector; captured from culture supernatant)
Source text: as §1, §2, §3, §4, §5

[4] = molecular target: T3, chimeric human/mouse Her2 variants (Homo sapiens, UniProt P04626, H318N/L317P); experiment: as above; settings: variant KO_295-296
T3 construct: His tag; made in house; host or cells: HEK293F (transient, pEBNA vector; captured from culture supernatant)
Source text: as §1, §2, §3, §4, §5

[5] = molecular target: T4, chimeric human/mouse Her2 variants (Homo sapiens, UniProt P04626, I184M/L181P/L183D/T182V); experiment: as above; settings: variant KO_159-162
T4 construct: His tag; made in house; host or cells: HEK293F (transient, pEBNA vector; captured from culture supernatant)
Source text: as §1, §2, §3, §4, §5

[6] = molecular target: T5, chimeric human/mouse Her2 variants (Homo sapiens, UniProt P04626, G201D/H193P/M198T/R203H/S196A/S202N/S209P); experiment: as above; settings: variant KO_171-187
T5 construct: His tag; made in house; host or cells: HEK293F (transient, pEBNA vector; captured from culture supernatant)
Source text: as §1, §2, §3, §4, §5

The binding affinity of 39S (KD) [2]	The binding affinity of 39S (KD) [3]	The binding affinity of 39S (KD) [4]	The binding affinity of 39S (KD) [5]	The binding affinity of 39S (KD) [6]	Molecule	in vivo activity (tumor growth) [1]	competition for binding / epitope (HER2)
–	–	–	–	–	T-DM1 [reference compound]	resistant	–
did not bind and No	did not bind and No	not impacted	not impacted	not impacted	39S: lead optimized monoclonal antibody derived from the 1.39.1 antibody; VH SEQ ID NO:15, VL SEQ ID NO:16 (antibody, V domains shown) VH: EVQLVESGGGLVKPGGSLRLSCAASGFTFSSYSMSWVRQAPGKGLEWVSSISSSSSYIYYADSVKGRFTISRDNAKNSLYLQMNSLRAEDTAVYYCARGGDAYNYYYFDYWGQGTLVTVSS VL: DIVMTQTPLSLSVTPGQPASISCKSSQSVFFRSNNKNILAWYLQKPGQPPQLLIYWASSRESGVPDRFSGSGSGTDFTLKISRVEAEDVGVYYCQQYFGSPFTFGPGTKVDIK	–	does not compete with trastuzumab or pertuzumab; also recorded: binds to the same epitope as its parental antibody AZ1.39.1
